Source: the RNAGym collection of RNA variant scans (doi:10.7554/elife.80360)

B1: CPEB3 Ribozyme (parent)
chain: GGGGGCCACAGCAGAAGCGUUCACGUCGCGGCCCCUGUCAGAUUCUGGUGAAUCUGCGAAUUCUGCUGU

Variants of: B1
Assay: self-cleavage, relative activity (ratio to wild type); higher = more cleavage; co-transcriptional

| Variant | self-cleavage |
| --- | --- |
| GGGGGCCACAAAAGAAGCGUUCACGUCGCGGCCCCUGUCAGAUUCUGGUGAAUCUGCGAAUUCUGCUGU | 0.74 |
| GGGGGCCACAAGAGAAGCGUUCACGUCGCGGCCCCUGUCAGAUUCUGGUGAAUCUGCGAAUUCUGCUGU | 0.788 |
| GGGGGCCACAACAGAAGAGUUCACGUCGCGGCCCCUGUCAGAUUCUGGUGAAUCUGCGAAUUCUGCUGU | 0.107 |
| GGGGGCCACAACAGAAGGGUUCACGUCGCGGCCCCUGUCAGAUUCUGGUGAAUCUGCGAAUUCUGCUGU | 0.106 |
| GGGGGCCACAACAGAAGUGUUCACGUCGCGGCCCCUGUCAGAUUCUGGUGAAUCUGCGAAUUCUGCUGU | 0.278 |
| GGGGGCCACAACAGAAGCGUUAACGUCGCGGCCCCUGUCAGAUUCUGGUGAAUCUGCGAAUUCUGCUGU | 0.127 |
| GGGGGCCACAACAGAAGCGUUUACGUCGCGGCCCCUGUCAGAUUCUGGUGAAUCUGCGAAUUCUGCUGU | 0.191 |
| GGGGGCCACAACAGAAGCGUUCAAGUCGCGGCCCCUGUCAGAUUCUGGUGAAUCUGCGAAUUCUGCUGU | 0.345 |
| GGGGGCCACAACAGAAGCGUUCAGGUCGCGGCCCCUGUCAGAUUCUGGUGAAUCUGCGAAUUCUGCUGU | 0.16 |
| GGGGGCCACAACAGAAGCGUUCAUGUCGCGGCCCCUGUCAGAUUCUGGUGAAUCUGCGAAUUCUGCUGU | 0.259 |
| GGGGGCCACAACAGAAGCGUUCACGUCGAGGCCCCUGUCAGAUUCUGGUGAAUCUGCGAAUUCUGCUGU | 0.26 |
| GGGGGCCACAACAGAAGCGUUCACGUCGGGGCCCCUGUCAGAUUCUGGUGAAUCUGCGAAUUCUGCUGU | 0.148 |
| GGGGGCCACAACAGAAGCGUUCACGUCGUGGCCCCUGUCAGAUUCUGGUGAAUCUGCGAAUUCUGCUGU | 0.0741 |
| GGGGGCCACAACAGAAGCGUUCACGUCGCGGACCCUGUCAGAUUCUGGUGAAUCUGCGAAUUCUGCUGU | 0.816 |
| GGGGGCCACAACAGAAGCGUUCACGUCGCGGGCCCUGUCAGAUUCUGGUGAAUCUGCGAAUUCUGCUGU | 0.293 |
| GGGGGCCACAACAGAAGCGUUCACGUCGCGGCGCCUGUCAGAUUCUGGUGAAUCUGCGAAUUCUGCUGU | 0.733 |
| GGGGGCCACAACAGAAGCGUUCACGUCGCGGCUCCUGUCAGAUUCUGGUGAAUCUGCGAAUUCUGCUGU | 0.908 |
| GGGGGCCACAACAGAAGCGUUCACGUCGCGGCCUCUGUCAGAUUCUGGUGAAUCUGCGAAUUCUGCUGU | 0.93 |
| GGGGGCCACAACAGAAGCGUUCACGUCGCGGCCCAUGUCAGAUUCUGGUGAAUCUGCGAAUUCUGCUGU | 0.242 |
| GGGGGCCACAACAGAAGCGUUCACGUCGCGGCCCUUGUCAGAUUCUGGUGAAUCUGCGAAUUCUGCUGU | 0.861 |
| GGGGGCCACAACAGAAGCGUUCACGUCGCGGCCCCUGUAAGAUUCUGGUGAAUCUGCGAAUUCUGCUGU | 0.405 |
| GGGGGCCACAACAGAAGCGUUCACGUCGCGGCCCCUGUGAGAUUCUGGUGAAUCUGCGAAUUCUGCUGU | 0.646 |
| GGGGGCCACAACAGAAGCGUUCACGUCGCGGCCCCUGUUAGAUUCUGGUGAAUCUGCGAAUUCUGCUGU | 0.609 |
| GGGGGCCACAACAGAAGCGUUCACGUCGCGGCCCCUGUCAGAUUGUGGUGAAUCUGCGAAUUCUGCUGU | 0.859 |
| GGGGGCCACAACAGAAGCGUUCACGUCGCGGCCCCUGUCAGAUUCUGGUGAAUAUGCGAAUUCUGCUGU | 0.368 |
| GGGGGCCACAACAGAAGCGUUCACGUCGCGGCCCCUGUCAGAUUCUGGUGAAUGUGCGAAUUCUGCUGU | 0.426 |

| Variant | self-cleavage |
| --- | --- |
| GGGGGCCACAACAGAAGCGUUCACGUCGCGGCCCCUGUCAGAUUCUGGUGAAUUUGCGAAUUCUGCUGU | 0.886 |
| GGGGGCCACAACAGAAGCGUUCACGUCGCGGCCCCUGUCAGAUUCUGGUGAAUCUGAGAAUUCUGCUGU | 0.287 |
| GGGGGCCACAACAGAAGCGUUCACGUCGCGGCCCCUGUCAGAUUCUGGUGAAUCUGUGAAUUCUGCUGU | 0.332 |
| GGGGGCCACAACAGAAGCGUUCACGUCGCGGCCCCUGUCAGAUUCUGGUGAAUCUGCGAAUUAUGCUGU | 0.75 |
| GGGGGCCACAACAGAAGCGUUCACGUCGCGGCCCCUGUCAGAUUCUGGUGAAUCUGCGAAUUGUGCUGU | 0.493 |
| GGGGGCCACAACAGAAGCGUUCACGUCGCGGCCCCUGUCAGAUUCUGGUGAAUCUGCGAAUUCUGUUGU | 0.967 |
| GGGGGCCACAACAAAAGCGUUCACGUCGCGGCCCCUGUCAGAUUCUGGUGAAUCUGCGAAUUCUGCUGU | 0.119 |
| GGGGGCCACAACACAAGCGUUCACGUCGCGGCCCCUGUCAGAUUCUGGUGAAUCUGCGAAUUCUGCUGU | 0.267 |
| GGGGGCCACAACAGAAACGUUCACGUCGCGGCCCCUGUCAGAUUCUGGUGAAUCUGCGAAUUCUGCUGU | 0.119 |
| GGGGGCCACAACAGAACCGUUCACGUCGCGGCCCCUGUCAGAUUCUGGUGAAUCUGCGAAUUCUGCUGU | 0.122 |
| GGGGGCCACAACAGAAUCGUUCACGUCGCGGCCCCUGUCAGAUUCUGGUGAAUCUGCGAAUUCUGCUGU | 0.142 |
| GGGGGCCACAACAGAAGCCUUCACGUCGCGGCCCCUGUCAGAUUCUGGUGAAUCUGCGAAUUCUGCUGU | 0.133 |
| GGGGGCCACAACAGAAGCUUUCACGUCGCGGCCCCUGUCAGAUUCUGGUGAAUCUGCGAAUUCUGCUGU | 0.088 |
| GGGGGCCACAACAGAAGCGUUCACCUCGCGGCCCCUGUCAGAUUCUGGUGAAUCUGCGAAUUCUGCUGU | 0.103 |
| GGGGGCCACAACAGAAGCGUUCACUUCGCGGCCCCUGUCAGAUUCUGGUGAAUCUGCGAAUUCUGCUGU | 0.176 |
| GGGGGCCACAACAGAAGCGUUCACGUCGCAGCCCCUGUCAGAUUCUGGUGAAUCUGCGAAUUCUGCUGU | 0.663 |
| GGGGGCCACAACAGAAGCGUUCACGUCGCCGCCCCUGUCAGAUUCUGGUGAAUCUGCGAAUUCUGCUGU | 0.672 |
| GGGGGCCACAACAGAAGCGUUCACGUCGCUGCCCCUGUCAGAUUCUGGUGAAUCUGCGAAUUCUGCUGU | 0.32 |
| GGGGGCCACAACAGAAGCGUUCACGUCGCGCCCCCUGUCAGAUUCUGGUGAAUCUGCGAAUUCUGCUGU | 0.155 |
| GGGGGCCACAACAGAAGCGUUCACGUCGCGUCCCCUGUCAGAUUCUGGUGAAUCUGCGAAUUCUGCUGU | 0.599 |
| GGGGGCCACAACAGAAGCGUUCACGUCGCGGCCCCUAUCAGAUUCUGGUGAAUCUGCGAAUUCUGCUGU | 0.188 |
| GGGGGCCACAACAGAAGCGUUCACGUCGCGGCCCCUCUCAGAUUCUGGUGAAUCUGCGAAUUCUGCUGU | 0.196 |
| GGGGGCCACAACAGAAGCGUUCACGUCGCGGCCCCUGUCAAAUUCUGGUGAAUCUGCGAAUUCUGCUGU | 0.276 |
| GGGGGCCACAACAGAAGCGUUCACGUCGCGGCCCCUGUCACAUUCUGGUGAAUCUGCGAAUUCUGCUGU | 0.278 |
| GGGGGCCACAACAGAAGCGUUCACGUCGCGGCCCCUGUCAUAUUCUGGUGAAUCUGCGAAUUCUGCUGU | 0.342 |
| GGGGGCCACAACAGAAGCGUUCACGUCGCGGCCCCUGUCAGAUUCUAGUGAAUCUGCGAAUUCUGCUGU | 0.942 |

| Variant | self-cleavage |
| --- | --- |
| GGGGGCCACAACAGAAGCGUUCACGUCGCGGCCCCUGUCAGAUUCUCGUGAAUCUGCGAAUUCUGCUGU | 0.895 |
| GGGGGCCACAACAGAAGCGUUCACGUCGCGGCCCCUGUCAGAUUCUUGUGAAUCUGCGAAUUCUGCUGU | 0.937 |
| GGGGGCCACAACAGAAGCGUUCACGUCGCGGCCCCUGUCAGAUUCUGCUGAAUCUGCGAAUUCUGCUGU | 0.951 |
| GGGGGCCACAACAGAAGCGUUCACGUCGCGGCCCCUGUCAGAUUCUGUUGAAUCUGCGAAUUCUGCUGU | 0.885 |
| GGGGGCCACAACAGAAGCGUUCACGUCGCGGCCCCUGUCAGAUUCUGGUCAAUCUGCGAAUUCUGCUGU | 0.715 |
| GGGGGCCACAACAGAAGCGUUCACGUCGCGGCCCCUGUCAGAUUCUGGUUAAUCUGCGAAUUCUGCUGU | 0.927 |
| GGGGGCCACAACAGAAGCGUUCACGUCGCGGCCCCUGUCAGAUUCUGGUGAAUCUACGAAUUCUGCUGU | 0.708 |
| GGGGGCCACAACAGAAGCGUUCACGUCGCGGCCCCUGUCAGAUUCUGGUGAAUCUUCGAAUUCUGCUGU | 0.475 |
| GGGGGCCACAACAGAAGCGUUCACGUCGCGGCCCCUGUCAGAUUCUGGUGAAUCUGCAAAUUCUGCUGU | 0.842 |
| GGGGGCCACAACAGAAGCGUUCACGUCGCGGCCCCUGUCAGAUUCUGGUGAAUCUGCCAAUUCUGCUGU | 0.876 |
| GGGGGCCACAACAGAAGCGUUCACGUCGCGGCCCCUGUCAGAUUCUGGUGAAUCUGCUAAUUCUGCUGU | 0.905 |
| GGGGGCCACAACAGAAGCGUUCACGUCGCGGCCCCUGUCAGAUUCUGGUGAAUCUGCGAAUUCUACUGU | 0.759 |
| GGGGGCCACAACAGAAGCGUUCACGUCGCGGCCCCUGUCAGAUUCUGGUGAAUCUGCGAAUUCUUCUGU | 0.781 |
| GGGGGCCACAACAGAAGCGUUCACGUCGCGGCCCCUGUCAGAUUCUGGUGAAUCUGCGAAUUCUGCUAU | 0.956 |
| GGGGGCCACAACAGAAGCGUUCACGUCGCGGCCCCUGUCAGAUUCUGGUGAAUCUGCGAAUUCUGCUCU | 0.947 |
| GGGGGCCACAACAGAAGCGUUCACGUCGCGGCCCCUGUCAGAUUCUGGUGAAUCUGCGAAUUCUGCUUU | 0.915 |
| GGGGGCCACAACAGAAGCGCUCACGUCGCGGCCCCUGUCAGAUUCUGGUGAAUCUGCGAAUUCUGCUGU | 0.213 |
| GGGGGCCACAACAGAAGCGGUCACGUCGCGGCCCCUGUCAGAUUCUGGUGAAUCUGCGAAUUCUGCUGU | 0.154 |
| GGGGGCCACAACAGAAGCGUACACGUCGCGGCCCCUGUCAGAUUCUGGUGAAUCUGCGAAUUCUGCUGU | 0.875 |
| GGGGGCCACAACAGAAGCGUCCACGUCGCGGCCCCUGUCAGAUUCUGGUGAAUCUGCGAAUUCUGCUGU | 0.633 |
| GGGGGCCACAACAGAAGCGUUCACGACGCGGCCCCUGUCAGAUUCUGGUGAAUCUGCGAAUUCUGCUGU | 0.676 |
| GGGGGCCACAACAGAAGCGUUCACGUCGCGGCCCCAGUCAGAUUCUGGUGAAUCUGCGAAUUCUGCUGU | 0.211 |
| GGGGGCCACAACAGAAGCGUUCACGUCGCGGCCCCCGUCAGAUUCUGGUGAAUCUGCGAAUUCUGCUGU | 0.727 |
| GGGGGCCACAACAGAAGCGUUCACGUCGCGGCCCCGGUCAGAUUCUGGUGAAUCUGCGAAUUCUGCUGU | 0.131 |
| GGGGGCCACAACAGAAGCGUUCACGUCGCGGCCCCUGACAGAUUCUGGUGAAUCUGCGAAUUCUGCUGU | 0.684 |
| GGGGGCCACAACAGAAGCGUUCACGUCGCGGCCCCUGCCAGAUUCUGGUGAAUCUGCGAAUUCUGCUGU | 0.733 |
